One substance from PMC3882140 can be followed below.

This experiment addresses CP-431C/mCherrySP141(C140A) P22 procapsid (bacteriophage P22) (UniProt P26747). Put plainly: pelleting by ultracentrifugation and resuspension.

For the substance “CP-431C/mCherrySP141(C140A) P22 procapsid (from UniProt P26747 1-430; P26748 141-303) (complex)”, the soluble capsid recovered after pelleting, relative to wtCP/mCherrySP141(C140A) is 3%.
